Our source for the activity values is patent publication US20260218147, “CAS ENDONUCLEASE AND GUIDE RNA VARIANTS WITH IMPROVED EFFICIENCY” (PIONEER HI-BRED INTERNATIONAL, INC., published 2026).

In series [1] the target is T1, Cas-alpha 10 wild type (Cas12f) (Syntrophomonas palmitatica, UniProt P0DW62 SEQ:1-497).
T1 sequence: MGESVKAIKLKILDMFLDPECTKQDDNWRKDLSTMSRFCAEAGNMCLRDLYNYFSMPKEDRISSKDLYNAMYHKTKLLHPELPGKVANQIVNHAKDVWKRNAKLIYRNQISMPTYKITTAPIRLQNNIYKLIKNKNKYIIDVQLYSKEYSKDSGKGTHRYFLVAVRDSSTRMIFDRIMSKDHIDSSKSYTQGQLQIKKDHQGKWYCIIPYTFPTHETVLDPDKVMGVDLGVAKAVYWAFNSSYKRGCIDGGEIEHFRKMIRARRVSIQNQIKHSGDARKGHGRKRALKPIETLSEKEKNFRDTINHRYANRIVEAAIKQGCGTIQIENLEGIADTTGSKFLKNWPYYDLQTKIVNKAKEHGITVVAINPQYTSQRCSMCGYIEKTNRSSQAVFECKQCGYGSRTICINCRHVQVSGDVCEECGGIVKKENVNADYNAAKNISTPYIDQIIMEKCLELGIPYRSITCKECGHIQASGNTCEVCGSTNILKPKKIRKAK
Nature of the series: cell_activity; PAM GTTC; maize, 3x4 hr 45 C. The note with it: tags: SV40 NLS; chain copies: 2. The procedure: (§1) The resulting T-DNA was then placed into LBA4404, a thymine auxotrophic strain of Agrobacterium tumefaciens, containing Vir9, a separate plasmid encoding the Bo542 virulence genes (US20170121722A1 and WO 2017/078836). The resulting Agrobacterium strain was then used to transform nine-to-ten-day old immature maize embryos (approximately 2 mm in size) by submersion in 700A liquid media containing the strain at an optical density (OD) of 0.4 to 2.0 at 550 nm for 5 min. and then removed from the media and placed on solid co-cultivation medium overnight at 21° C. in the dark. Following T-DNA delivery, embryos are transferred to resting media, 13266R, and grown in the dark at 28° C. for 5-7 days. Next, coleoptiles were removed, and embryos transferred to selection media for 11-16 days and kept in the dark at 28° C. They were then moved to maturation media and incubated for 14-25 days in the dark at 28° C. and then subject to light for 2-5 days. Next, they were moved to rooting media and incubated at 26-28° C. under light for 14-28 days refreshing media as needed. To examine Cas-alpha nuclease-guide RNA activity, transformed tissue was incubated at 28° C., standard for Agrobacterium transformation, or at a range of temperatures lower or higher than 28° C.
(§2) In a third study, the efficiency of targeted mutagenesis of Cas-alpha 10 endonuclease variants, SEQ ID NOs:14, 48, 60, and 157, were compared when tested with two sgRNA recognition domains, SEQ ID NOs:61 and 327, at two target sites, MS26 and D8. Experiments were carried-out in Zea mays using Agrobacterium (Agro) transformation as described in Example 2. Two temperature regimens were performed. The first subjected Agro transformed embryos (once per day) to 45° C. for 4 hrs on days 3, 4, and 5 (3×4 hr 45° C.) after infection and the second to a continuous incubation at 37° C. on days 1-3 (1-3d 37° C.) following infection. For both regimens, embryos were placed at 28° C. before and after temperature treatment. […]

Series [2] has as its target T2, Cas-alpha 10 variant G81E (synthetic construct, UniProt P0DW62 SEQ:1-497).
T2 chain: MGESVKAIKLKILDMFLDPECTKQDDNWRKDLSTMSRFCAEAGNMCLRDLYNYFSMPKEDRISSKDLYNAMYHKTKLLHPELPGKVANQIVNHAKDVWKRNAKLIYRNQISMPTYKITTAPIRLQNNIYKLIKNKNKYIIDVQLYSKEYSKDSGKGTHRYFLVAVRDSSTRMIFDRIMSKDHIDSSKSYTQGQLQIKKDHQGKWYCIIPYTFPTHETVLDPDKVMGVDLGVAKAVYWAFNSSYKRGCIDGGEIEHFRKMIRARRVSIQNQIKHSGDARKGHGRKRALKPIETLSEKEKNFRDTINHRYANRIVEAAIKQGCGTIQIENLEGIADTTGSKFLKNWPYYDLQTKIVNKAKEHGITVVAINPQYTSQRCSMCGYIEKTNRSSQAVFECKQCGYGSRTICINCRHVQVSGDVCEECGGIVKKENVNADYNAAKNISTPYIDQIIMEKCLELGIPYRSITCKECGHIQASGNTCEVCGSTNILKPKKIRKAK
As to the kind of experiment: cell_activity; PAM GTTC; maize, 3x4 hr 45 C. The note with it: tags: SV40 NLS; chain copies: 2. The procedure: as §1, §2

Series [3] concerns the target T3, Cas-alpha 10 variant M45S+F54D+G81E+G470D (synthetic construct, UniProt P0DW62 SEQ:1-497).
T3 chain: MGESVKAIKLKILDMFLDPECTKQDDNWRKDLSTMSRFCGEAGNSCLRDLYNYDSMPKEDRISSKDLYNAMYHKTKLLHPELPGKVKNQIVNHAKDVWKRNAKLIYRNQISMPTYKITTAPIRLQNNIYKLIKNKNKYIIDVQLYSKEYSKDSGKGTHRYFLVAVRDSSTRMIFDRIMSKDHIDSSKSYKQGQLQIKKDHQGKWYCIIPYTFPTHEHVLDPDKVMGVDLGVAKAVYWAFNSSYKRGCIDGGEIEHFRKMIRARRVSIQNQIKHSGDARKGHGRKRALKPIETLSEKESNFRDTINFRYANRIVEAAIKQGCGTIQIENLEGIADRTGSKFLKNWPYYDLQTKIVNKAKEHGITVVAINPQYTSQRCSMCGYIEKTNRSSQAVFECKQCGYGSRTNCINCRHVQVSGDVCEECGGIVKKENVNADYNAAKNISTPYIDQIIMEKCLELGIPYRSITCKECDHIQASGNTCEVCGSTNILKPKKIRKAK
As to the kind of experiment: cell_activity; PAM GTTC; 37 C overnight. The note with it: tags: SV40 NLS. How it is done:
(§3) K85Q was also predicted with AlphaFold to be involved in PAM recognition. Therefore, it was converted back to a K residue for M45S+F54D+G81E+K85Q+G470D (SEQ ID NO: 50) and T34E+M45S+F54D+G81E+K85Q+G470D (SEQ ID NO: 54) and re-tested using two ADE2 target sites. Testing was performed as described above and fold improvement in targeted DNA cleavage was calculated as described above, relative to the original protein.

For series [4], the target named is T4, Cas-alpha 10 variant T34E+M45S+F54D+G81E+K85Q+G470D (synthetic construct, UniProt P0DW62 SEQ:1-497).
T4 chain: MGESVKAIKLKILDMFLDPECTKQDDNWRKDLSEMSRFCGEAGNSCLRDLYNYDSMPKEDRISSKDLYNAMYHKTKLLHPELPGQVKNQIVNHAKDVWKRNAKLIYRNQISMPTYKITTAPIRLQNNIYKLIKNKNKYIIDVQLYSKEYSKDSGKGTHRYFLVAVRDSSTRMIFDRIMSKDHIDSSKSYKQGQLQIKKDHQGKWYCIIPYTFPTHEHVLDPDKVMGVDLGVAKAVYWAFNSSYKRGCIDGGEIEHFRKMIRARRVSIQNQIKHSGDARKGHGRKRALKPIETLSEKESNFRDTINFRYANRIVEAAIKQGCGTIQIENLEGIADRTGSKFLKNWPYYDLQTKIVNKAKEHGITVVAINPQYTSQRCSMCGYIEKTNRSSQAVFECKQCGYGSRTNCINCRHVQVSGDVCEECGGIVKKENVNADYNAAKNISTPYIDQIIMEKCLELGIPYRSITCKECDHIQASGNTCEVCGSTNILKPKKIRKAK
As to the kind of experiment: cell_activity; PAM GTTC; 37 C overnight. Conditions: tags: SV40 NLS; chain copies: 2. The procedure:
as §3

Series [5] addresses T5, Cas-alpha 10 base variant (synthetic construct, UniProt P0DW62 SEQ:1-497).
T5 chain: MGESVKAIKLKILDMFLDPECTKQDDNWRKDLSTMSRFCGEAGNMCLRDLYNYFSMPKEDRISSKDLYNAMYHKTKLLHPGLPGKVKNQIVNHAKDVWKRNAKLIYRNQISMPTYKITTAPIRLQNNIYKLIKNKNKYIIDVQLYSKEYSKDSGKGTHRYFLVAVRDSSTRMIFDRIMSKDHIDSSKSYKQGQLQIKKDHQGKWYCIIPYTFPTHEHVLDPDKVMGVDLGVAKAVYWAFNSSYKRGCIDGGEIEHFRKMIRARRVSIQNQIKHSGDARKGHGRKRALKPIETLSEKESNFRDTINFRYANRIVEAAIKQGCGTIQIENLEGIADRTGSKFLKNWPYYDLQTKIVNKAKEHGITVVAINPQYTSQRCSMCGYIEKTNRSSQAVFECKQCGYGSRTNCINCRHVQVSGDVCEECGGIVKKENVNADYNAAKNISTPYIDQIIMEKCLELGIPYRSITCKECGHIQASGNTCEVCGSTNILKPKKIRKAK
Nature of the series: cell_activity; PAM GTTC; 37 C overnight. The note with it: tags: SV40 NLS; chain copies: 2. How it is done: as §3

Series [6] concerns the target T6, Cas-alpha 10 variant T34E+M45S+F54D+G81E+G470D (synthetic construct, UniProt P0DW62 SEQ:1-497).
T6 chain: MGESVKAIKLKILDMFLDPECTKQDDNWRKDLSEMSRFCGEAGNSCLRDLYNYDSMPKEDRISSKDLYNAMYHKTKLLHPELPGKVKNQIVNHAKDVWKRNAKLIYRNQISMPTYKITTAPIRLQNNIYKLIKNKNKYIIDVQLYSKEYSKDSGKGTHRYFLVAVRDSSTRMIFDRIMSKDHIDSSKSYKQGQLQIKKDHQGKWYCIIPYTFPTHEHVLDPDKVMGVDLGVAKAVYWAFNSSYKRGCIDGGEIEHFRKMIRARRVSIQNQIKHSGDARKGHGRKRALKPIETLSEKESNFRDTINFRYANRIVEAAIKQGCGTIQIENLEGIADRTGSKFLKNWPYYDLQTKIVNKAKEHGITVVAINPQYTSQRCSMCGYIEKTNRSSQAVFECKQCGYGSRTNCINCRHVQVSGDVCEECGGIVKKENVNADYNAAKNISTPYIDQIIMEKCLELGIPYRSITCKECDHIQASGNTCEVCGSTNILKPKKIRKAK
As to the kind of experiment: cell_activity; PAM GTTC; 37 C overnight. The note with it: tags: SV40 NLS; chain copies: 2. The procedure:
as §3

Series [7] has as its target T7, Cas-alpha 10 variant M45S+F54D+G81E+K85Q+G470D (synthetic construct, UniProt P0DW62 SEQ:1-497).
T7 chain: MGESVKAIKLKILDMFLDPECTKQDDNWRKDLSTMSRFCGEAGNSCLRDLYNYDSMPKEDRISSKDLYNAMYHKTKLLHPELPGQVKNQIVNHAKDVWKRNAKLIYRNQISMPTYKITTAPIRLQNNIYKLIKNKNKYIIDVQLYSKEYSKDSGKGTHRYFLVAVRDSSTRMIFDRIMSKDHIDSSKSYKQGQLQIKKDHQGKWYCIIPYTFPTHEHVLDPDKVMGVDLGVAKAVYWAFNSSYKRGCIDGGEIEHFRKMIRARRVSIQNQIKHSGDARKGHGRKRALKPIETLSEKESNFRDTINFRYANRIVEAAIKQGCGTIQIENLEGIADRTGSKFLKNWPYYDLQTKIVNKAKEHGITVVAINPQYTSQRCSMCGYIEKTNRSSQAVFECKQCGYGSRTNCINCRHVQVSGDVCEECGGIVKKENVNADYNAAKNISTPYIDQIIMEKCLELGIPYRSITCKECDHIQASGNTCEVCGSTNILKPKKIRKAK
Nature of the series: cell_activity; PAM GTTC; 37 C overnight. The note with it: tags: SV40 NLS; chain copies: 2. The procedure: as §3

B1: sgRNA MS26 (recognition domain SEQ 327) ; MS26 target (ssRNA ; dsDNA)
RNA: GUUUCGCGCGCCAGGGCAGUUAGGUGCCCUAAAAGAGCGAAGUGGCCGAAAGGAAAGGCUAACGCUUCUCUAACGCUACGGCGACCUUGGCGAAAUGCCAUCAAUACCACGCGGCCCGAAAGGGUUCGCGCGAAACGAAAUAAGCGCGUGGAUUGAAACAAGUUCACGGCGUUCCAGGC
DNA 1: GTTCAAGTTCACGGCGTTCCAGGC
DNA 2: GCCTGGAACGCCGTGAACTTGAAC
As for B1, the activity is 4.67 % targeted mutagenesis in series [1] and 15.5 % targeted mutagenesis in series [2].

B2: sgRNA ADE2-CR1 ; ADE2-CR1 target (ssRNA ; dsDNA)
RNA: AUUUACUCUGUUUCGCGCGCCAGGGCAGUUAGGUGCCCUAAAAGAGCGAAGUGGCCGAAAGGAAAGGCUAACGCUUCUCUAACGCUACGGCGACCUUGGCGAAAUGCCAUCAAUACCACGCGGCCCGAAAGGGUUCGCGCGAAACUGAGUAAUGAAAGUCGCAUCUUGCGUAAGCGCGUGGAUUGAAACCUACACUAAAGAAUCUUCAA
DNA 1: GTTCCTACACTAAAGAATCTTCAA
DNA 2: TTGAAGATTCTTTAGTGTAGGAAC
Turning to B2, the activity in series [3] worked out at 45.4 % red yeast; in series [4], 7.48 % red yeast; in series [5], 2.76 % red yeast; in series [6], 64.5 % red yeast; in series [7], 5.19 % red yeast.
